# Source: patent publication US20210292384A1 (LARIX BIOSCIENCE, published 2021)
# Residue numbers refer to the chain shown, from its start. In names and notes the source's numbering stands.
# B1: LB697-D30E/L79W/N330Y (Fc fusion)
# chain: QSTIEEQAKTFLEKFNHEAEDLFYQSSLASWNYNTNITEENVQNMNNAGDKWSAFLKEQSTWAQMYPLQEIQNLTVKLQLQALQQNGSSVLSEDKSKRLNTILNTMSTIYSTGKVCNPDNPQECLLLEPGLNEIMANSLDYNERLWAWESWRSEVGKQLRPLYEEYVVLKNEMARANHYEDYGDYWRGDYEVNGVDGYDYSRGQLIEDVEHTFEEIKPLYEHLHAYVRAKLMNAYPSYISPIGCLPAHLLGDMWGRFWTNLYSLTVPFGQKPNIDVTDAMVDQAWDAQRIFKEAEKFFVSVGLPNMTQGFWEYSMLTDPGNVQKAVCHPTAWDLGKGDFRILMCTKVTMDDFLTAHHEMGHIQYDMAYAAQPFLLRNGANEGFHEAVGEIMSLSAATPKHLKSIGLLSPDFQEDNETEINFLLKQALTIVGTLPFTYMLEKWRWMVFKGEIPKDQWMKKWWEMKREIVGVVEPVPHDETYCDPASLFHVSNDYSFIRYYTRTLYQFQFQEALCQAAKHEGPLHKCDISNSTEAGQKLFNMLRLGKSEPWTLALENVVGAKNMNVRPLLNYFEPLFTWLKDQNKNSFVGWSTDWSPYAD
# B2: LB697-D30E/Q42K/L79W/N330Y (Fc fusion)
# chain: B1 chain with Q25K
# Biological target: T1, RBD domain of SARS-CoV2 spike protein (SARS-CoV-2, UniProt P0DTC2 319-541)
# T1 construct: domain: RBD domain
# Experiment: Octet (BLI), ACE2-Fc against spike RBD
Binder,Kd [nM],koff [s⁻¹],kon [M⁻¹ s⁻¹]
B1,1.49,0.0012,808000
B2,0.91,0.00074,810000
